# Reference: article PMC8876323, “Heat Shock Transcription Factor CgHSF1 Is Required for Melanin Biosynthesis, Appressorium Formation, and Pathogenicity in Colletotrichum gloeosporioides”
# B1: CMR1-probe (dsDNA)
# DNA 1: CGTATCACTTGTTCGAATTTCTCACACATTCGGT
# DNA 2: ACCGAATGTGTGAGAAATTCGAACAAGTGATACG
# B2: T4HRa-probe (dsDNA)
# DNA 1: CGAGTAAGGCACGCGAAGTTCAGGAGAGAGACCT
# DNA 2: AGGTCTCTCTCCTGAACTTCGCGTGCCTTACTCG
# B3: YG-probe (dsDNA)
# DNA 1: TGTGGTGGTTTGAGAACATTCACTCAAAGCTCAC
# DNA 2: GTGAGCTTTGAGTGAATGTTCTCAAACCACCACA
# Target: T1, CgHSF1 (Colletotrichum gloeosporioides)
# T1 chain: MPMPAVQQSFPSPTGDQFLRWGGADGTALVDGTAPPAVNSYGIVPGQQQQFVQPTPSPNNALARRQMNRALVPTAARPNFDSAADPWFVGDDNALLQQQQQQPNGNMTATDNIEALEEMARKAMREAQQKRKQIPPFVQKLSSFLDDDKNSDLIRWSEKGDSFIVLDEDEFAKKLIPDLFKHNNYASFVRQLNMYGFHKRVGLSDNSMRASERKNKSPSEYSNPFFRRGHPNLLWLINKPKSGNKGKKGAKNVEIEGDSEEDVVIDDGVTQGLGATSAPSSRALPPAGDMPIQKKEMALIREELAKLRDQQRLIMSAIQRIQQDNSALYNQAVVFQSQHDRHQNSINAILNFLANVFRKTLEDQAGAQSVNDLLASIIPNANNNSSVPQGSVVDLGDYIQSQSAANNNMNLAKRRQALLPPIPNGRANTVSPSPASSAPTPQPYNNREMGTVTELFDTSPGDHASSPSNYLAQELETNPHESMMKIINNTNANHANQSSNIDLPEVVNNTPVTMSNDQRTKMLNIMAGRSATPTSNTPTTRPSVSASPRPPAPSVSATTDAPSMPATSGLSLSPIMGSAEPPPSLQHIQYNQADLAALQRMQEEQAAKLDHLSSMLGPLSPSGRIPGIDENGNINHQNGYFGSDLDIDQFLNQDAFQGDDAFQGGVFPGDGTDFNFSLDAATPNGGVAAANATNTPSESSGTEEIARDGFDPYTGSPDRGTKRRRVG
# Assay: EMSA
# Conditions: protein: recombinant; tags: His (Ni-NTA purified, pCOLD vector); blunt
row,Binder,binding result
1,B1,binds
2,B2,binds
3,B3,binds
